{
  "source": "paper PMC5302063",
  "about": "“In vivo mapping of a dynamic ribonucleoprotein granule interactome in early Drosophila embryos” (FEBS Open Bio, 2016)",
  "binders": {"B1": {"name": "Myc-tagged eIF4A (enzyme, Drosophila, UniProt Q02748 1-403, looked up)", "chain": "MDDRNEIPQDGPASMEPEGVIESTWHEVYDNFDDMNLREELLRGIYGYGFEKPSAIQQRAIIPCVRGRDVIAQAQSGTGKTATFSIAILQQIDTSIRECQALILAPTRELATQIQRVVMALGEYMKVHSHACIGGTNVREDARILESGCHVVVGTPGRVYDMINRKVLRTQYIKLFVLDEADEMLSRGFKDQIQDVFKMLPPDVQVILLSATMPPDVLEVSRCFMRDPVSILVKKEELTLEGIKQFYVNVKQENWKLGTLCDLYDTLSITQSVIFCNTRRKVDQLTQEMSIHNFTVSAMHGDMEQRDREVIMKQFRSGSSRVLITTDLLARGIDVQQVSLVINYDLPSNRENYIHRIGRGGRFGRKGVAINFITDDDRRILKDIEQFYHTTIEEMPANIADLI", "notes": "eukaryotic translation initiation factor 4A (eIF4A), ATP-dependent RNA helicase, Drosophila; also called Myc-eIF4A; eukaryotic translation initiation factor 4A; source: S2 cells, purified (anti-c-Myc beads, c-Myc peptide elution)"}},
  "molecular_target": "T1, recombinant Aub with N-terminal His-, Myc- and 3xFLAG-tags (Drosophila, UniProt O76922 1-866)",
  "T1 construct": "Aubergine (Aub), Drosophila; aub cDNA cloned into pFastBac/NT-TOPO; also called FLAG-tagged Aub; Aubergine; source: Sf9 (bacmid from pFastBac/NT-TOPO), purified (anti-c-Myc beads, c-Myc peptide elution); not shown: Myc, N-terminal, kept; 3xFLAG, N-terminal, kept",
  "T1 sequence (looked up)": "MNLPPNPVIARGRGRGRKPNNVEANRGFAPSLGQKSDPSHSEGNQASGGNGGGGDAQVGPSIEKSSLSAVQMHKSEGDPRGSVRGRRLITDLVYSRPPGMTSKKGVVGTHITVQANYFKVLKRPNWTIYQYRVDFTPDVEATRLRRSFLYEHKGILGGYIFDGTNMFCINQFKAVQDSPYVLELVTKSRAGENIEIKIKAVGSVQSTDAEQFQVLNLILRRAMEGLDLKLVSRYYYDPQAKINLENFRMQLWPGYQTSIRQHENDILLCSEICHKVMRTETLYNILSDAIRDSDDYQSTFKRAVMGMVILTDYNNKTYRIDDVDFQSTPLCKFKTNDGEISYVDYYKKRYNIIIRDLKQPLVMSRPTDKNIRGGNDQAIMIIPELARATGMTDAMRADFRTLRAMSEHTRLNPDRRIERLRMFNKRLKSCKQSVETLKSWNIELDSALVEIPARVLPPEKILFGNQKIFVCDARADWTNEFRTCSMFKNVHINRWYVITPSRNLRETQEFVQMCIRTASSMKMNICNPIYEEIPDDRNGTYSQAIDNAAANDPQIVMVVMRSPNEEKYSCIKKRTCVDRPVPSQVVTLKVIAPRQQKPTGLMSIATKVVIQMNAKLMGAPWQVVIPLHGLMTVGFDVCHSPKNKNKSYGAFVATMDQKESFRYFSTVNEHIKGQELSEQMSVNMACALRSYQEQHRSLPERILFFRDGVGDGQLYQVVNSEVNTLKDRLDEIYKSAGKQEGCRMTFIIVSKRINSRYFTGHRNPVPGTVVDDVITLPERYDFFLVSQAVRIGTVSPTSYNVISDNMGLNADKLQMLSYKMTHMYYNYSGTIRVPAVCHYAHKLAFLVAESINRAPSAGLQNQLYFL",
  "assay": "pull-down; purified FLAG-tagged Aub or FLAG-GFP control bound to anti-FLAG beads; purified Myc-eIF4A added in PBS, 0.05% IGEPAL CA-630, 4 °C, 60 min; western blot with anti-c-Myc",
  "conditions": "both partners purified",
  "data": [
    {"binder": "B1", "values": [
      {"measurement": "binding result", "value": "binds"}
    ]}
  ]
}
